Assay [1] deals with HLA-C*08:02. Nature of the assay: IEDB peptide-MHC binding, purified MHC/direct/fluorescence; filed as Kd, often an IC50 or EC50 that approximates it; ≥ and ≤ were set here for values at or beyond the usual limits of such assays.
Assay [2] concerns the target HLA-B*08:01. Put plainly: IEDB peptide-MHC binding, purified MHC/competitive/fluorescence; filed as Kd, often an IC50 or EC50 that approximates it; ≥ and ≤ were set here for values at or beyond the usual limits of such assays. Conditions: source organism: Influenza A virus (A/Harbin/1/1988(H1N2)).
Assay [3] addresses HLA-A*24:03. Put plainly: IEDB peptide-MHC binding, purified MHC/direct/fluorescence; filed as Kd, often an IC50 or EC50 that approximates it; ≥ and ≤ were set here for values at or beyond the usual limits of such assays.
The target of assay [4] is HLA-A*30:01. The assay is described as above. The settings on record: source organism: Kurkino virus.
Assay [5] has as its target HLA-A*23:01. The assay is described as above. Conditions: source organism: Orthohantavirus dobravaense.
Assay [6] has as its target HLA-C*04:01. Described as above.
For assay [7], the target named is HLA-B*08:01. Put plainly: IEDB peptide-MHC binding, purified MHC/competitive/fluorescence; ≥ and ≤ were set here for values at or beyond the usual limits of such assays.
Assay [8] deals with HLA-A*24:02. Described as above.
In assay [9] the target is HLA-A*24:02. Nature of the assay: IEDB peptide-MHC binding, purified MHC/competitive/fluorescence; filed as Kd, often an IC50 or EC50 that approximates it; ≥ and ≤ were set here for values at or beyond the usual limits of such assays.
In assay [10] the target is HLA-A*80:01. Nature of the assay: IEDB peptide-MHC binding, purified MHC/direct/fluorescence; filed as Kd, often an IC50 or EC50 that approximates it; ≥ and ≤ were set here for values at or beyond the usual limits of such assays.
The target in assay [11] is HLA-A*01:01. Put plainly: IEDB peptide-MHC binding, purified MHC/competitive/fluorescence; filed as Kd, often an IC50 or EC50 that approximates it; ≥ and ≤ were set here for values at or beyond the usual limits of such assays. Conditions: source organism: Human immunodeficiency virus type 1 BH10.
The target of assay [12] is HLA-A*29:02. The assay is described as above. Conditions: source organism: Human immunodeficiency virus type 1 BH10.
Assay [13] addresses HLA-C*14:02. Put plainly: IEDB peptide-MHC binding, purified MHC/direct/fluorescence; filed as Kd, often an IC50 or EC50 that approximates it; ≥ and ≤ were set here for values at or beyond the usual limits of such assays. The settings on record: source organism: Vibrio vulnificus YJ016.
For assay [14], the target named is HLA-A*01:01. The description is as above.
Assay [15] concerns the target HLA-B*35:01. Put plainly: IEDB peptide-MHC binding, purified MHC/competitive/fluorescence; filed as Kd, often an IC50 or EC50 that approximates it; ≥ and ≤ were set here for values at or beyond the usual limits of such assays. The settings on record: source organism: Mopeia Lassa virus reassortant 29.
In assay [16] the target is HLA-B*46:01. The assay is described as above. The settings on record: source organism: Mopeia Lassa virus reassortant 29.
In assay [17] the target is HLA-A*11:01. Nature of the assay: IEDB peptide-MHC binding, purified MHC/direct/fluorescence; filed as Kd, often an IC50 or EC50 that approximates it; ≥ and ≤ were set here for values at or beyond the usual limits of such assays. Conditions: source organism: Brucella abortus.
The target of assay [18] is HLA-A*02:06. Described as above.
For assay [19], the target named is HLA-A*31:01. The assay is described as above. Conditions: source organism: Brucella abortus.
Assay [20] addresses HLA-B*44:02. The description is as above. Conditions: source organism: Brucella abortus.
For assay [21], the target named is HLA-B*15:01. The assay is described as above. The settings on record: source organism: Brucella abortus.
The target of assay [22] is HLA-A*02:19. Described as above.
Assay [23] has as its target HLA-C*05:01. The description is as above. Conditions: source organism: Brucella melitensis bv. 1 str. 16M.
In assay [24] the target is HLA-B*40:01. Described as above. Conditions: source organism: Brucella abortus.
In assay [25] the target is HLA-B*27:05. The description is as above. The settings on record: source organism: Brucella abortus.
The target of assay [26] is HLA-A*02:12. The assay is described as above.
In assay [27] the target is HLA-A*03:01. The description is as above. The settings on record: source organism: Brucella abortus.
The target in assay [28] is HLA-A*02:01. The assay is described as above.
Assay [29] deals with HLA-A*02:03. Described as above. Conditions: source organism: Brucella suis ATCC 23445.
For assay [30], the target named is HLA-A*02:11. The assay is described as above. Conditions: source organism: Brucella suis ATCC 23445.
Assay [31] concerns the target HLA-B*58:01. The assay is described as above. Conditions: source organism: Brucella abortus.
Assay [32] concerns the target HLA-B*46:01. Described as above. Conditions: source organism: Brucella abortus.
The target in assay [33] is HLA-B*07:02. Described as above. Conditions: source organism: Brucella abortus.
The target of assay [34] is HLA-A*69:01. Described as above.
The target in assay [35] is HLA-C*12:03. The assay is described as above. The settings on record: source organism: Mycobacterium tuberculosis variant bovis BCG str. Pasteur 1173P2.
The target in assay [36] is HLA-C*03:03. The assay is described as above. The settings on record: source organism: Mycobacterium tuberculosis variant bovis BCG str. Pasteur 1173P2.
For assay [37], the target named is HLA-A*02:16. The assay is described as above. Conditions: source organism: Brucella suis 1330.
Assay [38] concerns the target HLA-C*06:02. The description is as above. The settings on record: source organism: Listeria monocytogenes J0161.
Assay [39] has as its target HLA-B*15:01. Nature of the assay: IEDB peptide-MHC binding, purified MHC/competitive/fluorescence; ≥ and ≤ were set here for values at or beyond the usual limits of such assays. The settings on record: source organism: Zaire ebolavirus.
Assay [40] addresses HLA-A*02:01. The assay is described as above. Conditions: source organism: Zaire ebolavirus.
The mark [41] stands for this setting: source organism: Vaccinia virus.
The mark [42] stands for this setting: source organism: Mammarenavirus lassaense.
Where [43] appears, read: source organism: Brucella abortus.
[44] abbreviates: source organism: Brucella suis ATCC 23445.
Setting [45] is: source organism: Vaccinia virus Copenhagen.
[46] abbreviates: source organism: Brucella suis 1330.
[47] abbreviates: source organism: Zaire ebolavirus.

Usually Kd stands for the free concentration of one partner at which half of the binding sites on the other are occupied at equilibrium, for simple one-to-one binding. Consider IAPWYAFAL, for which the dissociation constant Kd is 3.34 µM in [1] (source organism: Influenza A virus (A/Harbin/1/1988(H1N2))) and 7.56 µM in assay [2].
As for YYTEDQGQF, the dissociation constant Kd in assay [3] (source organism: Orthohantavirus dobravaense) was 0.0014 µM; in assay [4], not below 20 µM; in assay [5], 0.0135 µM; in assay [6] (source organism: Kurkino virus) it was not below 20 µM.
For orientation: IC50 means the midpoint of a concentration-inhibition curve. A high value points to weaker potency in that assay. As for FKPPKFRAF, the IC50 in assay [7] (setting [41]) is not below 191 µM; in assay [8] (setting [41]) it was 52.6 µM.
As to YQGKFYMPF, the Kd in [9] (source organism: Yersinia pestis Nepal516) amounted to 0.0003 µM.
On to FNCGGEFFY, for which the figures for the Kd in [10] (source organism: Human immunodeficiency virus 1), in [11] and in [12] were 0.0526 µM, 0.0565 µM and not above 0.0001 µM, respectively.
For AYFLEAQEM, the results for the dissociation constant Kd in assay [3] (source organism: Vibrio vulnificus), in [13] and in [6] (source organism: Vibrio vulnificus YJ016) were 0.0036 µM, not above 0.001 µM and not below 20 µM, respectively.
For YSQESPQSY, the Kd in assay [14] (setting [42]) is 0.0011 µM; in [10] (setting [42]), not below 20 µM; in assay [15], 0.044 µM; in assay [16], 0.842 µM.
In the case of LSDDSGLMV, the dissociation constant (Kd) is not below 20 µM in assay [17]; 0.0217 µM in [14] (setting [43]); 0.062 µM in assay [18] (setting [44]); not below 20 µM in [19]; not below 20 µM in assay [20]; not below 20 µM in assay [21]. Further, the Kd was not below 20 µM in assay [22] (setting [44]); 0.007 µM in assay [23]; not below 20 µM in assay [24]; not below 20 µM in assay [25]; 1.58 µM in assay [26] (setting [44]); not below 20 µM in assay [27]. Besides, the Kd in assay [28] (setting [43]) is 1.05 µM; in assay [29], 0.42 µM; in assay [30] it was 0.071 µM; in assay [31] it was not below 20 µM; in [32], not below 20 µM; in assay [33], not below 20 µM.
Turning to FLADYGWRL, the dissociation constant (Kd) was 0.663 µM in assay [34] (source organism: Mycobacterium tuberculosis), 0.057 µM in [1] (source organism: Mycobacterium tuberculosis variant bovis BCG str. Pasteur 1173P2), 0.413 µM in [35] and 0.026 µM in assay [36].
GNIKHKERI: the figures for the IC50 in [7] (setting [45]) and in assay [8] (setting [45]) were not below 199 µM and 47.7 µM, respectively.
Take IFIYSFFTW: the Kd in [9] (source organism: Francisella tularensis subsp. holarctica FSC200) came out at 0.0111 µM.
With MRDGGSATV, the Kd in assay [18] (setting [46]) was not below 10 µM; in assay [34] (setting [46]), not below 20 µM; in [37], not below 10 µM; in assay [22] (setting [46]) it was not below 20 µM; in [26] (setting [46]) it was not below 20 µM; in assay [28] (source organism: Brucella suis), not below 20 µM.
With YYVWMVQFF, the results for the dissociation constant (Kd) in assay [38] and in assay [9] (source organism: Listeria monocytogenes J0161) were not below 20 µM and 0.0002 µM, respectively.
For HMMVIFRLM, the concentration for half-maximal inhibition (IC50) is not below 3440 µM in assay [7] (setting [47]), 0.83 µM in assay [8] (setting [47]), not below 168 µM in assay [39] and 0.176 µM in assay [40].

Values taken from the Immune Epitope Database (IEDB).
